The record followed here is paper PMC12141716, “An archaeal nucleoid-associated protein binds an essential motif in DNA replication origins” (Nature Communications, 2025).

The series deals with T1, UBP (Sulfolobus islandicus REY15A, UniProt F0NFD3 1-111).
T1 sequence: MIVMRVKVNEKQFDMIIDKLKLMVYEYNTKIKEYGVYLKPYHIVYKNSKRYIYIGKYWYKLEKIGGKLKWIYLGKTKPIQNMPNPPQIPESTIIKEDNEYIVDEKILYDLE
In words: thermal melting protection; 55-65 C, 50 mM NaCl; EMSA: 50 mM K-acetate, 20 mM Tris-acetate, 10 mM Mg-acetate, 1 mM DTT, pH 7.9, 5-10% glycerol, 70 mM NaCl, 800 ng salmon sperm DNA per 10 ul, room temperature 10 min; footprinting same buffer, 4% glycerol, 8000 ng salmon sperm DNA; pull-down 25 mM HEPES pH 7.5, 150 mM NaCl, 10 mM MgCl, 100 uM ZnCl, 10 mM DTT, 48 C. The following applies: protein: recombinant; tags: MBP tag removed by Factor Xa; 3 extra vector residues at N-terminus; chain copies: 2; label: 5'-32P; 40 bp duplex with 10 nt C overhangs at 5' and 3' of strand 2. A general note: In EMSA bound probe runs differently from free probe, usually more slowly.

B1: 40 bp duplex for melting (P19/P20) (dsDNA)
DNA 1: ATAATTAGATAACCATTATACAAAAGAATTGTATAAGAAT
DNA 2: CCCCCCCCCCATTCTTATACAATTCTTTTGTATAATGGTTATCTAATTATCCCCCCCCCC
For the molecule B1, the binding result is listed as “binds”.
